Data as given in the supplement of paper PMC5998384.

Legend:
HeLa Kyoto [1] = assay: solubility change mitosis vs G1/S (difference of NP-40 vs SDS log2 ratios) (log2 ratio difference); higher = more soluble in mitosis
HeLa Kyoto [2] = assay: thermal stability score vs G1/S (z-score of summed log2 fold changes over temperatures); higher = more thermally stable than in G1/S
HeLa Kyoto [3] = assay: solubility in G1/S (NP-40 vs SDS abundance) (log2 ratio); higher = more soluble; details: cell cycle stage: G1/S
HeLa Kyoto [4] = assay: melting temperature (median over replicates), in situ; higher = more thermally stable
[5] = cell cycle stage: early G1 (4.5 h after nocodazole release)
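Wherever melting temperature (median over replicates), in situ is given: HeLa Kyoto cells synchronized by double thymidine or nocodazole block, proteins quantified by TMT10plex mass spectrometry, three independent biological replicates.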
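Wherever solubility change mitosis vs G1/S (difference of NP-40 vs SDS log2 ratios) is given: synchronized HeLa Kyoto cells (double thymidine block for G1/S, nocodazole release for mitosis), protein amounts in NP-40 versus SDS lysates quantified by mass spectrometry, three biological replicates.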
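Wherever solubility in G1/S (NP-40 vs SDS abundance) is given: HeLa Kyoto cells arrested at G1/S by double thymidine block, proteins quantified by TMT10plex mass spectrometry in mild NP-40 versus SDS extracts, three biological replicates.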
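Wherever thermal stability score vs G1/S (z-score of summed log2 fold changes over temperatures) is given: synchronized HeLa Kyoto cells, proteins quantified by TMT10plex mass spectrometry, three biological replicates, mitosis taken 0.5 h after nocodazole release, G1/S directly after double thymidine block.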

CIAPIN1, sequence (chain, as listed by the source): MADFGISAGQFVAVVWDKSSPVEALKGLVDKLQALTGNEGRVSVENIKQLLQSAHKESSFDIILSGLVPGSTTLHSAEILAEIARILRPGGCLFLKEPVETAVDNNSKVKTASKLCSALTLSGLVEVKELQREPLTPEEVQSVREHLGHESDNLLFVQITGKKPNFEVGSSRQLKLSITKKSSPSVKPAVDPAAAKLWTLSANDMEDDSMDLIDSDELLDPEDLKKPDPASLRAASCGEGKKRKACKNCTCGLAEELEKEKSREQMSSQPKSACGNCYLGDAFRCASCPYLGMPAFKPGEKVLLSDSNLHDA

Substance	solubility change mitosis (log2) (HeLa Kyoto [1])	thermal stability score (HeLa Kyoto [2]; [5])	thermal stability score (HeLa Kyoto [2]; cell cycle stage: mitosis)	solubility in G1/S (log2) (HeLa Kyoto [3])	melting temperature (HeLa Kyoto [4]; cell cycle stage: G1/S)	melting temperature (HeLa Kyoto [4]; cell cycle stage: mitosis)
MRLPRRAALGLLPLLLLLPPAPEAAKKPTPCHRCRGLVDKFNQGMVDTAKKNFGGGNTAWEEKTLSKYESSEIRLLEILEGLCESSDFECNQMLEAQEEHLEAWWLQLKSEYPDLFEWFCVKTLKVCCSPGTYGPDCLACQGGSQRPCSGNGHCSGDGSRQGDGSCRCHMGYQGPLCTDCMDGYFSSLRNETHSICTACDESCKTCSGLTNRDCGECEVGWVLDEGACVDVDECAAEPPPCSAAQFCKNANGSYTCEECDSSCVGCTGEGPGNCKECISGYAREHGQCADVDECSLAEKTCVRKNENCYNTPGSYVCVCPDGFEETEDACVPPAEAEATEGESPTQLPSREDL [CRELD2]	-0.0918	-5.44	-1.73	0.092	57.2 °C	59.6 °C
MKPGATGESDLAEVLPQHKFDSKSLEAYLNQHLSGFGAEREATLTIAQYRAGKSNPTFYLQKGFQTYVLRKKPPGSLLPKAHQIDREFKVQKALFSIGFPVPKPILYCSDTSVIGTEFYVMEHVQGRIFRDLTIPGLSPAERSAIYVATVETLAQLHSLNIQSLQLEGYGIGAGYCKRQVSTWTKQYQAAAHQDIPAMQQLSEWLMKNLPDNDNEENLIHGDFRLDNIVFHPKECRVIAVLDWELSTIGHPLSDLAHFSLFYFWPRTVPMINQGSYSENSGIPSMEELISIYCRCRGINSILPNWNFFLALSYFKMAGIAQGVYSRYLLGNNSSEDSFLFANIVQPLAETGLQLSKRTFSTVLPQIDTTGQLFVQTRKGQEVLIKVKHFMKQHILPAEKEVTEFYVQNENSVDKWGKPLVIDKLKEMAKVEGLWNLFLPAVSGLSHVDYALIAEETGKCFFAPDVFNCQAPDTGNMEVLHLYGSEEQKKQWLEPLLQGNITSCFCMTEPDVASSDATNIECSIQRDEDSYVINGKKWWSSGAGNPKCKIAIVLGRTQNTSLSRHKQHSMILVPMNTPGVKIIRPLSVFGYTDNFHGGHFEIHFNQVRVPATNLILGEGRGFEISQGRLGPGRIHHCMRTVGLAERALQIMCERATQRIAFKKKLYAHEVVAHWIAESRIAIEKIRLLTLKAAHSMDTLGSAGAKKEIAMIKVAAPRAVSKIVDWAIQVCGGAGVSQDYPLANMYAITRVLRLADGPDEVHLSAIATMELRDQAKRLTAKI [ACAD11]	-0.0749	0.241	-0.505	-0.0959	53.9 °C	52.9 °C
MELSQMSELMGLSVLLGLLALMATAAVARGWLRAGEERSGRPACQKANGFPPDKSSGSKKQKQYQRIRKEKPQQHNFTHRLLAAALKSHSGNISCMDFSSNGKYLATCADDRTIRIWSTKDFLQREHRSMRANVELDHATLVRFSPDCRAFIVWLANGDTLRVFKMTKREDGGYTFTATPEDFPKKHKAPVIDIGIANTGKFIMTASSDTTVLIWSLKGQVLSTINTNQMNNTHAAVSPCGRFVASCGFTPDVKVWEVCFGKKGEFQEVVRAFELKGHSAAVHSFAFSNDSRRMASVSKDGTWKLWDTDVEYKKKQDPYLLKTGRFEEAAGAAPCRLALSPNAQVLALASGSSIHLYNTRRGEKEECFERVHGECIANLSFDITGRFLASCGDRAVRLFHNTPGHRAMVEEMQGHLKRASNESTRQRLQQQLTQAQETLKSLGALKK [TBL2]	0.307	0.379	-0.532	-0.571	51 °C	50.4 °C
MELPSGPGPERLFDSHRLPGDCFLLLVLLLYAPVGFCLLVLRLFLGIHVFLVSCALPDSVLRRFVVRTMCAVLGLVARQEDSGLRDHSVRVLISNHVTPFDHNIVNLLTTCSTPLLNSPPSFVCWSRGFMEMNGRGELVESLKRFCASTRLPPTPLLLFPEEEATNGREGLLRFSSWPFSIQDVVQPLTLQVQRPLVSVTVSDASWVSELLWSLFVPFTVYQVRWLRPVHRQLGEANEEFALRVQQLVAKELGQTGTRLTPADKAEHMKRQRHPRLRPQSAQSSFPPSPGPSPDVQLATLAQRVKEVLPHVPLGVIQRDLAKTGCVDLTITNLLEGAVAFMPEDITKGTQSLPTASASKFPSSGPVTPQPTALTFAKSSWARQESLQERKQALYEYARRRFTERRAQEAD [AUP1]	-0.102	0.525	0.836	-0.262	50.9 °C	50.6 °C
MSSLHKSRIADFQDVLKEPSIALEKLRELSFSGIPCEGGLRCLCWKILLNYLPLERASWTSILAKQRELYAQFLREMIIQPGIAKANMGVSREDVTFEDHPLNPNPDSRWNTYFKDNEVLLQIDKDVRRLCPDISFFQRATDYPCLLILDPQNEFETLRKRVEQTTLKSQTVARNRSGVTNMSSPHKNSVPSSLNEYEVLPNGCEAHWEVVERILFIYAKLNPGIAYVQGMNEIVGPLYYTFATDPNSEWKEHAEADTFFCFTNLMAEIRDNFIKSLDDSQCGITYKMEKVYSTLKDKDVELYLKLQEQNIKPQFFAFRWLTLLLSQEFLLPDVIRIWDSLFADDNRFDFLLLVCCAMLMLIREQLLEGDFTVNMRLLQDYPITDVCQILQKAKELQDSK [TBC1D13]	-0.145	-0.565	0.385	0.0698	53.2 °C	54.1 °C
MON2	-0.108	-0.177	0.256	-0.103	49.8 °C	50.1 °C
MADSRDPASDQMQHWKEQRAAQKADVLTTGAGNPVGDKLNVITVGPRGPLLVQDVVFTDEMAHFDRERIPERVVHAKGAGAFGYFEVTHDITKYSKAKVFEHIGKKTPIAVRFSTVAGESGSADTVRDPRGFAVKFYTEDGNWDLVGNNTPIFFIRDPILFPSFIHSQKRNPQTHLKDPDMVWDFWSLRPESLHQVSFLFSDRGIPDGHRHMNGYGSHTFKLVNANGEAVYCKFHYKTDQGIKNLSVEDAARLSQEDPDYGIRDLFNAIATGKYPSWTFYIQVMTFNQAETFPFNPFDLTKVWPHKDYPLIPVGKLVLNRNPVNYFAEVEQIAFDPSNMPPGIEASPDKMLQGRLFAYPDTHRHRLGPNYLHIPVNCPYRARVANYQRDGPMCMQDNQGGAPNYYPNSFGAPEQQPSALEHSIQYSGEVRRFNTANDDNVTQVRAFYVNVLNEEQRKRLCENIAGHLKDAQIFIQKKAVKNFTEVHPDYGSHIQALLDKYNAEKPKNAIHTFVQSGSHLAAREKANL [CAT]	-0.000938	-2.19	-2.27	0.174	58.2 °C	57.9 °C
CIAPIN1	-0.0971	0.785	3.13	0.471	50.7 °C	51.7 °C
MALKQISSNKCFGGLQKVFEHDSVELNCKMKFAVYLPPKAETGKCPALYWLSGLTCTEQNFISKSGYHQSASEHGLVVIAPDTSPRGCNIKGEDESWDFGTGAGFYVDATEDPWKTNYRMYSYVTEELPQLINANFPVDPQRMSIFGHSMGGHGALICALKNPGKYKSVSAFAPICNPVLCPWGKKAFSGYLGTDQSKWKAYDATHLVKSYPGSQLDILIDQGKDDQFLLDGQLLPDNFIAACTEKKIPVVFRLQEGYDHSYYFIATFITDHIRHHAKYLNA [ESD]	-0.0867	-1.51	-2.28	-0.0889	55.8 °C	56.4 °C
ALDH6A1	-0.072	0.0292	0.822	0.179	49.3 °C	49.9 °C
MLRPAGLWRLCRRPWAARVPAENLGRREVTSGVSPRGSTSPRTLNIFDRDLKRKQKNWAARQPEPTKFDYLKEEVGSRIADRVYDIPRNFPLALDLGCGRGYIAQYLNKETIGKFFQADIAENALKNSSETEIPTVSVLADEEFLPFKENTFDLVVSSLSLHWVNDLPRALEQIHYILKPDGVFIGAMFGGDTLYELRCSLQLAETEREGGFSPHISPFTAVNDLGHLLGRAGFNTLTVDTDEIQVNYPGMFELMEDLQGMGESNCAWNRKALLHRDTMLAAAAVYREMYRNEDGSVPATYQIYYMIGWKYHESQARPAERGSATVSFGELGKINNLMPPGKKSQ [NDUFAF5]	-0.0552	0.357	0.191	0.329	53.5 °C	53.4 °C
MNPAAEAEFNILLATDSYKVTHYKQYPPNTSKVYSYFECREKKTENSKLRKVKYEETVFYGLQYILNKYLKGKVVTKEKIQEAKDVYKEHFQDDVFNEKGWNYILEKYDGHLPIEIKAVPEGFVIPRGNVLFTVENTDPECYWLTNWIETILVQSWYPITVATNSREQKKILAKYLLETSGNLDGLEYKLHDFGYRGVSSQETAGIGASAHLVNFKGTDTVAGLALIKKYYGTKDPVPGYSVPAAEHSTITAWGKDHEKDAFEHIVTQFSSVPVSVVSDSYDIYNACEKIWGEDLRHLIVSRSTQAPLIIRPDSGNPLDTVLKVLEILGKKFPVTENSKGYKLLPPYLRVIQGDGVDINTLQEIVEGMKQKMWSIENIAFGSGGGLLQKLTRDLLNCSFKCSYVVTNGLGINVFKDPVADPNKRSKKGRLSLHRTPAGNFVTLEEGKGDLEEYGQDLLHTVFKNGKVTKSYSFDEIRKNAQLNIELEAAHH [NAMPT]	-0.0826	-1.65	-1.17	0.264	56.9 °C	55.9 °C
